The results in this text go back to US20220362394A1 (SUTRO BIOPHARMA, published 2022).

The target of test [1] is T1, human BCMA-Fc (human, UniProt Q02223 1-54).
T1 construct: Bought from R&D Systems; also called huBCMA-Fc; not shown: Fc part not described
T1 sequence: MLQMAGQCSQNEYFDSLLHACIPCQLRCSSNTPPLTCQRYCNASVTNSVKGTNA
As to the kind of experiment: SPR Biacore, human BCMA-Fc kinetics. Here is the method:
(§1) Anti-Fab or anti-Fc polyclonal antibodies were immobilized onto a CM5 chip (GE Life Sciences) using amine coupling chemistry (from Amine Coupling Kit, GE Life Sciences). The immobilization steps were carried out at a flow rate of 25 μL/min in 1×HBS-EP+ buffer (GE Life Sciences; 10× Stock diluted before use). The sensor surfaces were activated for 7 min with a mixture of NHS (0.05 M) and EDC (0.2 M). The anti-Fab or anti-Fc antibodies were injected over all 4 flow cells at a concentration of 25 μg/ml in 10 mM sodium acetate, pH 4.5, for 7 min. Ethanolamine (1 M, pH 8.5) was injected for 7 min to block any remaining activated groups.
(§2) Off-rate and kinetic binding experiments were performed at 25° C. using 1×HBS-EP+ buffer. […] After capturing ligand (antibody) on the anti-Fab or anti-Fc surface, the analyte (human BCMA-Fc, cyno BCMA-Fc, or human BCMA from R&D Systems, custom protein production, or Sigma Aldrich, respectively) was bound for 180 seconds, followed by a 600 second dissociation phase at a flow rate of 50 μL/min. Between each ligand capture and analyte binding cycle, regeneration was carried out using 2 injections of 10 mM glycine pH 2.0 for 30 seconds at 30 μL/min, followed by a 30 second buffer wash step.
(§3) The data was fit with the Biacore T200 Evaluation software, using a 1-1 Langmuir binding model. KD (affinity, nM) was determined as a ratio of the kinetic rate constants calculated from the fits of the association and dissociation phases.
A general note: In SPR one partner is held on a chip, and binding of the other changes the refractive index at the surface.

Another test concerns the target cynomolgus BCMA on cells (cynomolgus monkey, UniProt Q02223 1-184 (human entry)). As to the kind of experiment: FACS, 293T-cynoBCMA cells. Here is the method: (§4) Variants for which sufficient protein was purified in secondary screening were tested in a fluorescence-activated cell sorting (FACS) cell-binding assay. […] 6-12 point dilutions of anti-BCMA variants starting from concentrations of about 100-200 nM antibody were dispensed into each well using a BioMekFX (Beckman Coulter). Cells were then incubated on ice for 1 hr, washed with FACS buffer and incubated for 1 hr on ice with […] FACS buffer containing 2.5 μg/ml Alexa647-conjugated Goat Anti-Human IgG dispensed using BioMekFX (Beckman Coulter). Cells were then washed 2× with FACS buffer and fixed for 10 minutes in […] PBS with 2% paraformaldehyde (PFA) prior to fluorescence detection. Samples were acquired using a Beckton Dickinson LSRII FACS. Geometric Mean Fluorescence Intensity of BCMA antibody binding was analyzed using FlowJo® software (Tree Star, Inc.).
A general note: A flow cytometer gives signals particle by particle.

A further test addresses T2, human BCMA on cells (human, UniProt Q02223 1-184).
T2 construct: also called hBCMA; BCMA on NCI-H929, ARP-1, OPM-2, U266B1, MM.1S, RPMI-8226 cells
T2 sequence: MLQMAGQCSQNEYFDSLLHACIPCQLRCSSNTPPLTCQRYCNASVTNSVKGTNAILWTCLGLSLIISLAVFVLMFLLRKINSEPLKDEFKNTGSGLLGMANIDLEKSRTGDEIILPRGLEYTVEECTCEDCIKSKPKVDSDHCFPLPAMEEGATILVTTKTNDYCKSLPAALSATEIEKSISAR
Briefly: FACS, NCI-H929 cells. The procedure:
as §4

The target in test [2] is T1, human BCMA-Fc. As to the kind of experiment: SPR Biacore, antibody captured, 25 C. The procedure:
as §1, §2, §3

Another test concerns the target T3, cyno BCMA-Fc (cynomolgus monkey, UniProt Q02223 1-54 (human entry)).
T3 construct: Custom protein production; also called cynomolgus BCMA-Fc; not shown: Fc part not described
Briefly: ELISA, coated cynoBCMA-Fc. Background: In an ELISA, binding on a coated surface is turned into a signal by an enzyme label.

Test [3] addresses T1, human BCMA-Fc. As to the kind of experiment: ELISA, coated huBCMA-Fc.
The target of a further test is T4, rat BCMA on cells (rat).
T4 construct: whole, on cells
Briefly: FACS, 293T-ratBCMA cells.

For orientation: Kd means the concentration at which binding is half-saturated. For orientation: koff means the first-order rate constant of dissociation. Low readings indicate slow dissociation, high ones fast dissociation. Usually kon stands for the rate constant with which the complex forms. A lower kon goes with slower complex formation. By EC50 is commonly meant the concentration needed to bring the measured effect to its halfway point. Lower therefore signals higher potency in that assay.

Sequence of cynomolgus BCMA on cells (Q02223 other isoform, or with tags, fused parts or gaps): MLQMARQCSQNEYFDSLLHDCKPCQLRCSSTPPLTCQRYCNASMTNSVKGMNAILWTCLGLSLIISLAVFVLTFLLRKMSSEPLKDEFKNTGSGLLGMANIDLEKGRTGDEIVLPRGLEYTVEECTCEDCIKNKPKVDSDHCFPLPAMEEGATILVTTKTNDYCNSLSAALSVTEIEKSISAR

B1: 11D6 (antibody, V domains shown)
VH: AVTLDESGGGLQTPGGTLSLVCKASGFTFSSFNMFWVRQAPGEGLEWVAYIRNDGRSTSYGPAVKGRATISRDNGQSTVRLQLNNLRAEDTGTYFCAKTTCVGSGGCIDTWGHGTEVIVSS
VL: ALTQPSSVSANPGETVEITCSGGNSDYGWFQQKSPGSAPVTVIYRNNQRPSDIPSRFSGSGSGSTNTLTITGVQAEDEAIYYCGNVDFTDDVFGAGTTLTVL
notes: Chicken HybriFree-derived antibody; also called Antibody 32
In the test with human BCMA-Fc [1], B1 came in with a dissociation constant Kd of 0.313 nM, a koff of 0.000318 s⁻¹ and an on-rate (kon) of 1.02e+06 M⁻¹ s⁻¹. For the same molecule, in the test with cynomolgus BCMA on cells, the Bmax stood at 27700 MFI and the affinity, expressed as Kd, was 12.2 nM. In the test with human BCMA on cells, this molecule registered a Bmax of 26400 MFI and a dissociation constant Kd of 47.5 nM.

B2: 2291-G05 (antibody, V domains shown)
VH: EVQLVESGGGLVQPGGSLRLSCAASGFNIAAYTIHWVRQAPGKGLEWVGWISPYGGYTEYADSVKGRFTISADTSKNTAYLQMNSLRAEDTAVYYCARDFHDRYATFVLDYWGQGTLVTVSS
VL: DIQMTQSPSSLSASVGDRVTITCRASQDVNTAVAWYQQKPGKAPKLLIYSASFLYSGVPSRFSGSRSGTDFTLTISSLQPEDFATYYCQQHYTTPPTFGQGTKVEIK
notes: also called Antibody 24
In the test with human BCMA-Fc [2], B2 registered a Kd of 0.962 nM, a koff of 0.000423 s⁻¹ and an on-rate (kon) of 440000 M⁻¹ s⁻¹. Moreover, in the test with cyno BCMA-Fc, the Bmax was determined as 3.38e+06 and it took 0.09 nM to reach a half-maximal effect (EC50). Besides, in the test with cynomolgus BCMA on cells, the Bmax amounted to 62700 MFI and the dissociation constant (Kd) came out at 1 nM. In the test with human BCMA on cells, this molecule had a Bmax of 23200 MFI and a dissociation constant Kd of 1.4 nM. For the same molecule, in the test with human BCMA-Fc [3], the Bmax turned out to be 3.91e+06 and the midpoint of the response, the EC50, lay at 0.13 nM.

B3: 2291-A01 (antibody, V domains shown)
VH: EVQLVESGGGLVQPGGSLRLSCAASGFNIDPYTIHWARQAPGKGLEWVAHISPYDGYTDYADSVKGRFTISADTSKNTAYLQMNSLRAEDTAVYYCARDFYDRYSTYVLDYWGQGTLVTVSS
VL: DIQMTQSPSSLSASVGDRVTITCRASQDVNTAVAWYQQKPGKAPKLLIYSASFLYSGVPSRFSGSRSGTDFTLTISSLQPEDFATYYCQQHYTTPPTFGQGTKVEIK
notes: also called Antibody 29
In the test with human BCMA-Fc [2], B3 came in with a Kd of 0.0438 nM, a dissociation rate constant (koff) of 2.82e-05 s⁻¹ and an on-rate constant (kon) of 644000 M⁻¹ s⁻¹. For the same molecule, in the test with cyno BCMA-Fc, the Bmax was 4.77e+06 and a half-maximal effect (EC50) was put at 0.33 nM. In the test with cynomolgus BCMA on cells, this molecule yielded a Bmax of 67200 MFI and an equilibrium dissociation constant (Kd) of 1 nM. Also, in the test with human BCMA on cells, the Bmax was determined as 32500 MFI and the dissociation constant (Kd) was found to be 4.9 nM. In the test with human BCMA-Fc [3], this molecule came in with a Bmax of 5e+06 and an EC50 of 0.39 nM.

B4: 2291-F10 (antibody, V domains shown)
VH: EVQLVESGGGLVQPGGSLRLSCAASGFNIDPYTIHWVRQAPGKGLEWVGWISPYDGYTEYADSVKGRFTISADTSKNTAYLQMNSLRAEDTAVYYCARDYYDRYSTYVLDYWGRGTLVTVSS
VL: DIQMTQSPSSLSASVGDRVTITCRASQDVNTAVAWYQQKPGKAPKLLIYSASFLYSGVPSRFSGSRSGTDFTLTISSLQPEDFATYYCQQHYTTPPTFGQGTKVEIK
notes: also called Antibody 27
Turning to B4, in the test with human BCMA-Fc [2], binding was put at a Kd of 0.178 nM, the koff is 9.65e-05 s⁻¹ and the association rate constant (kon) came to 541000 M⁻¹ s⁻¹. Further, in the test with cyno BCMA-Fc, the Bmax was 3.43e+06 and the EC50 turned out to be 0.06 nM. For the same molecule, in the test with cynomolgus BCMA on cells, the Bmax was found to be 66500 MFI and the dissociation constant (Kd) is 0.7 nM. In the test with human BCMA on cells, this molecule had a Bmax of 33800 MFI and a Kd of 5.4 nM. Moreover, in the test with human BCMA-Fc [3], the Bmax was determined as 3.72e+06 and the midpoint of the response, the EC50, lay at 0.1 nM.

B5: 10F4 (antibody, V domains shown)
VH: AVTLDESGGGLQTPGGALSLVCKASGFTFSGYNMGWVRQAPGKGLEYVAGITYGTGSYTAYGAAVKGRATISRDNGQSTLRLQLNNLRAEDTATYYCARGGGLNSYGCSGANIDAWGHGTEVIVSS
VL: ALTQPSSVSANLGGTVKITCSGGGNYFGSYYYGWYQQKAPGSAPVTVIYNNNNRPSDIPSRFSGSTSGSTSTLTISGVRAEDEAVYFCGGFDSSTDAIFGAGTTLTVL
notes: Chicken HybriFree-derived antibody; also called Antibody 37
As for B5, the Bmax with rat BCMA on cells is 410 MFI; with cynomolgus BCMA on cells, 12800 MFI; with human BCMA on cells, 18700 MFI. The Kd in the test with rat BCMA on cells was 5.47 nM; with cynomolgus BCMA on cells it was 5.94 nM; with human BCMA on cells, 10.5 nM.

B6: 10E10 (antibody, V domains shown)
VH: AVTLDESGGGLQTPGGGLSLVCKASGFTFSSYGMGWMRQAPGKGLEFVARINSGGSSYTDYGSAVKGRATISRDDGQSTVRLQLNNLRAEDTGIYYCTRGGGGASIDGWGHGTEVIVSS
VL: ALTQPSSVSANPGETVKITCSGGGNYAGSYYYGWYQQKSPGSAPLTVIYNSNNRPSDIPSRFSGSLSGSTGTLTITGVRAEDEAVYFCGGFDSSTDAIFGAGTTLTVL
notes: Chicken HybriFree-derived antibody; also called Antibody 46
On to B6, for which the Bmax stood at 906 MFI in the test with rat BCMA on cells, 4540 MFI with cynomolgus BCMA on cells and 3440 MFI in the test with human BCMA on cells. Moreover, the Kd with rat BCMA on cells came out at 6.83 nM; with cynomolgus BCMA on cells, 18.9 nM; in the test with human BCMA on cells, 4.67 nM.

B7: 10H1 (antibody, V domains shown)
VH: AVTLDESGGGLQTPGGALSLVCKASGFTFSGYGMGWMRQAPGKGLEYVARINSAGSDTDYGAAVKGRATISRDNGQSTVRLQLNNLRAEDTATYFCTRGGGGASIDGWGHGTEVIVSS
VL: ALTQPSSVSANPGETVKITCSGGGNYYGSYYYGWYQQKAPGSAPVTVIYNNNNRPSNIPSRFSGSKSGSTGTLTITGVQAEDEAVYFCGGFDSSSDAIFGAGTTLTVL
notes: Chicken HybriFree-derived antibody; also called Antibody 45
Take B7: in the test with human BCMA-Fc [1], binding was characterised by a dissociation constant (Kd) of 2.92 nM, the koff worked out at 17.9 s⁻¹ and the on-rate constant (kon) worked out at 6.14e+09 M⁻¹ s⁻¹. In the test with rat BCMA on cells, this molecule showed a Bmax of 4350 MFI and a Kd of 0.39 nM. In the test with cynomolgus BCMA on cells, this molecule yielded a Bmax of 21200 MFI and a Kd of 0.25 nM. In the test with human BCMA on cells, this molecule gave a Bmax of 22500 MFI and a Kd of 0.36 nM.

B8: 9E12 (antibody, V domains shown)
VH: AVTLDESGGGLQTPGGGLSLVCKASGFTFSDYGLGWMRQAPGKGLEYVARINSAGSGTYYGSAVDGRATISRDNGQSTVRLQLNNLRAEDTGTYYCTRGGGGASIDGWGHGTEVIVSS
VL: ALTQPSSVSANPGETVKITCSGGGSYYGSYYYGWYQQKSPGSAPVTLIYNNNNRPSDIPSRFSGSTSGSTGTLTITGVRAEDEAVYYCGSFDSSTDAIFGAGTTLTVL
notes: Chicken HybriFree-derived antibody; also called Antibody 43
With B8, the Bmax stood at 4690 MFI in the test with rat BCMA on cells, 13200 MFI with cynomolgus BCMA on cells and 8140 MFI with human BCMA on cells. For the same molecule, the values for the Kd with rat BCMA on cells, in the test with cynomolgus BCMA on cells and with human BCMA on cells were 2.61 nM, 0.34 nM and 0.52 nM, respectively.

B9: 9A5 (antibody, V domains shown)
VH: AVTLDESGGGLQTPGGAVSLVCKASGFSISDYGMGWMRQAPGKGLQYVARIDHDGRYTDYGAVVKGRATISRDNGQSTVRLQLNNLRAEDTGTYYCTRGGGAASIDTWGHGTEVIVSS
VL: ALTQPSSVSANPGETVKITCSGGGNYVGGYYYGWYQQKAPGSALVTLIYNNNNRPSNIPSRFSGSTSGSTSTLTITGVRAEDEAVYFCGSFDSSTDAIFGAGTTLTVL
notes: Chicken HybriFree-derived antibody; also called Antibody 42
Take B9: the Bmax came out at 2780 MFI with rat BCMA on cells, 18200 MFI with cynomolgus BCMA on cells and 19700 MFI with human BCMA on cells. For the same molecule, the results for the dissociation constant Kd with rat BCMA on cells, with cynomolgus BCMA on cells and in the test with human BCMA on cells were 7.13 nM, 0.64 nM and 1.01 nM, respectively.

B10: 9H1 (antibody, V domains shown)
VH: AVTLDESGGGLQTPGGALSLVCKGSGFTFSDYGMGWMRQAPGKGLQYVARINSAGSDTNYGSAVKGRATISRDDGQSTVRLQLSSLRAEDTGIYYCTRGGGGASIDGWGHGTEVIVSS
VL: ALTQPSSVSANPGETVKITCSGGGSYYGSYYYGWYQQKSPGSAPVTLIYNNNNRPSDIPSRFSGSTSGSTGTLTITGVRAEDEAVYYCGSFDSSTDAIFGAGTTLTVL
notes: Chicken HybriFree-derived antibody; also called Antibody 44
Turning to B10, the Bmax came to 3450 MFI with rat BCMA on cells, 11400 MFI with cynomolgus BCMA on cells and 6160 MFI with human BCMA on cells. Also, the equilibrium dissociation constant (Kd) with rat BCMA on cells was 1.32 nM; in the test with cynomolgus BCMA on cells it was 0.39 nM; with human BCMA on cells, 1 nM.
